Experimental data from patent publication US20230112123A1 (IMMUNEONCO BIOPHARMACEUTICALS SHANGHAI, published 2023).

T1: human CD70 (human, UniProt P32970 1-193)
T1 construct: whole, on cells; Stated as human for the CHO transfectants; also called cell surface CD70s
T1 sequence (looked up): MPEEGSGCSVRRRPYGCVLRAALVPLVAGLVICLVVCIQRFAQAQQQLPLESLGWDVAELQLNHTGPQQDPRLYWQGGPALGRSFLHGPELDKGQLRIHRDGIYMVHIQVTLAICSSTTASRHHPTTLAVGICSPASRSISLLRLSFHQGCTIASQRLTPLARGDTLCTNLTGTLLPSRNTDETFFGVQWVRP


Assays:
[1] = target: T1, human CD70; experiment: flow cytometry on CD47+CD70+ Raji cells
[2] = target: T1, human CD70; experiment: flow cytometry on CD70+ CHO cells
Method: (§1) Cells were washed with 1% BSA-PBS once, and then incubated with 100 μl 1:500 diluted FITC-conjugated secondary antibody against human IgG-Fc (Cat #F9512, Sigma) at 4° C. for 45 min. Cells were washed once with 1% BSA-PBS, re-suspended in 200 μl 1% BSA-PBS, and then subject to FACS analysis using a flow cytometer (Merck Millipore, Guava® easyCyte 5HT).

[3] = target: T1, human CD70; experiment: flow cytometry on CHO cells expressing human CD70
Method: as §1

binding result [2]	Binder	other results
–	Cusatuzumab (antibody, human IgG1, lambda, V domains shown, Anti-CD70 IgG used as comparator) VH: EVQLVESGGGLVQPGGSLRLSCAASGFTFSVYYMNWVRQAPGKGLEWVSDINNEGGTTYYADSVKGRFTISRDNSKNSLYLQMNSLRAEDTAVYYCARDAGYSNHVPIFDSWGQGTLVTVSS VL: QAVVTQEPSLTVSPGGTVTLTCGLKSGSVTSDNFPTWYQQTPGQAPRLLIYNTNTRHSGVPDRFSGSILGNKAALTITGAQADDEAEYFCALFISNPSVEFGGGTQLTVLG	binding result [1]: binds
binds	IMM40H (antibody, human IgG1, kappa, V domains shown, Humanized IgG1/kappa; X=N for IMM40H; N85 is a glycosylation site in the light chain variable region; also called IMM4OH) VH: QVQLVQSGAEVKKPGASVKVSCKVSGYTFTDSALHWVRQAPGKGLEWMGVISTYDGDTDYNQKFKGRVTMTEDTSTDTAYMELSSLRSEDTAVYYCARRGYYDYDWFPYWGQGTLVTVSA VL: DIVLTQSPASLAVSPGQRATITCRASKSVSASGYSFLHWYQQKPGQPPKLLIYLASNLESGVPARFSGSGSGTDFTLTINPVEANDTANYYCQHSRELPPTFGGGTKVEIKR	–
binds	IMM40M (antibody, human IgG1, kappa, V domains shown, IMM40H with N85E in the light chain variable region, which removes a glycosylation site; also called IMM4OM) VH: QVQLVQSGAEVKKPGASVKVSCKVSGYTFTDSALHWVRQAPGKGLEWMGVISTYDGDTDYNQKFKGRVTMTEDTSTDTAYMELSSLRSEDTAVYYCARRGYYDYDWFPYWGQGTLVTVSA VL: DIVLTQSPASLAVSPGQRATITCRASKSVSASGYSFLHWYQQKPGQPPKLLIYLASNLESGVPARFSGSGSGTDFTLTINPVEAEDTANYYCQHSRELPPTFGGGTKVEIKR	–
–	IMM40C (antibody, human IgG1, kappa, V domains shown, Chimeric IgG: mouse variable regions with human IgG1 and human kappa constant regions; expressed in CHO-S cells) VH: QVQLQQSGPEVVRPGVSVKISCKGSGYTFTDSALHWVKQSHAKSLEWIGVISTYDGDTDYNQKFKGKATMTVDKSSSTAYMELARLTSEDSAIYYCARRGYYDYDWFPYWGQGTLVTVSA VL: DIVLTQSPASLAISLGQRATISCRASKSVSASGYSFLHWYQQKPGQPPKLLIYLASNLESGVPARFSGSGSGTDFTLNIHPVEEEDAATFYCQHSRELPPTFGGGTKLEIKR	binding result [3]: binds
